Test results: publication PMC8184810, “Light regulates stomatal development by modulating paracrine signaling from inner tissues”

What was measured:
[1] = target: T1, MBP-HY5 (Arabidopsis thaliana, UniProt O24646 1-168); assay: EMSA; EMSA: 20 fmol biotin probe, ~1 ug protein, 20 ul binding buffer (composition not given), on ice 1 h; pull-down: 10 mM Tris-HCl pH 7.5, 50 mM KCl, 5 mM MgCl2, 2.5% glycerol, 0.05% NP-40, 5 ug salmon sperm DNA, 10 ug BSA, 4 C 1 h; conditions: protein: recombinant; tags: N-terminal MBP (pETG-40A); chain copies: 2; blunt
T1 sequence: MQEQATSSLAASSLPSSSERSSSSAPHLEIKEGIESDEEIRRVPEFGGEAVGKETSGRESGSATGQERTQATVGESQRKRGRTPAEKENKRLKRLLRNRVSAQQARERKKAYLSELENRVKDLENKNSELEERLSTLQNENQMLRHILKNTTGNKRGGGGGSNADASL

[2] = target: T1, MBP-HY5; assay: pull-down; 5 mM MgCl2; salmon sperm DNA; EMSA: 20 fmol biotin probe, ~1 ug protein, 20 ul binding buffer (composition not given), on ice 1 h; pull-down: 10 mM Tris-HCl pH 7.5, 50 mM KCl, 5 mM MgCl2, 2.5% glycerol, 0.05% NP-40, 5 ug salmon sperm DNA, 10 ug BSA, 4 C 1 h; conditions: protein: recombinant; tags: N-terminal MBP (pETG-40A); chain copies: 2; blunt

B1: P2 (STOMAGEN promoter) (dsDNA)
DNA 1: TCCTCTGTATTTTCAAACTCTTATCTCTACGTGTGCACAAACCTCACCATTAGATGATAA
DNA 2: TTATCATCTAATGGTGAGGTTTGTGCACACGTAGAGATAAGAGTTTGAAAATACAGAGGA
B1: binds [1].

B2: mP2 (Z-box mutated) (dsDNA)
DNA 1: TCCTCTGTATTTTCAAACTCTTATCTCAAAAAATGCACAAACCTCACCATTAGATGATAA
DNA 2: TTATCATCTAATGGTGAGGTTTGTGCATTTTTTGAGATAAGAGTTTGAAAATACAGAGGA
B2: no binding [2].
